First the molecules themselves.
B1: γTIP (natural protein, UniProt P25818 1-251, looked up)
chain: MPIRNIAIGRPDEATRPDALKAALAEFISTLIFVVAGSGSGMAFNKLTENGATTPSGLVAAAVAHAFGLFVAVSVGANISGGHVNPAVTFGAFIGGNITLLRGILYWIAQLLGSVVACLILKFATGGLAVPAFGLSAGVGVLNAFVFEIVMTFGLVYTVYATAIDPKNGSLGTIAPIAIGFIVGANILAGGAFSGASMNPAVAFGPAVVSWTWTNHWVYWAGPLVGGGIAGLIYEVFFINTTHEQLPTTDY
notes: gamma-TIP, tonoplast aquaporin of Arabidopsis; detected with an antibody against its C-terminal nine amino acids; also called tonoplast aquaporin γTIP; source: endogenous, Arabidopsis leaf homogenate or microsomes
B2: AtKCO3::GFP (natural protein, Arabidopsis thaliana, UniProt Q9XFR0 1-260, looked up)
chain: MPMTPSEFKNRLLFGSLPRSSSDPTDLQFTEPNVPPSLFSLPEHNDDTATDMAPDQETEQSVSKSIARQALALLVVYLSLGVLIYWLTLDSDNAYQTHPVAVALYFFVVTFCGFLIVHFVVKIGWLDSFCFSVMMVTTVGFGDRAFNTWLGTFLAAVWLLVSTLAVARAFLFLADARADKRNRERAKKVLGESISISQFFAADIDNDGRLSLAEFAIYKLKQMEKITQEDFIQICNQFDKLDRTQSGRITLVDLTTATSV
notes: AtKCO3 of Arabidopsis thaliana, locus AT5G46360; fusion of about 60 kDa; Made with pBI-35S-10H-GFP-JFH1 (Hong et al., 1999); the vector's name may mean further tag residues (surmise); source: transgenic Arabidopsis (CaMV 35S promoter, p35S-KCO3::GFP), in leaf homogenate; not shown: GFP, C-terminal, kept
B3: AtKCO3 (natural protein, Arabidopsis thaliana, UniProt Q9XFR0 1-260, looked up)
chain: MPMTPSEFKNRLLFGSLPRSSSDPTDLQFTEPNVPPSLFSLPEHNDDTATDMAPDQETEQSVSKSIARQALALLVVYLSLGVLIYWLTLDSDNAYQTHPVAVALYFFVVTFCGFLIVHFVVKIGWLDSFCFSVMMVTTVGFGDRAFNTWLGTFLAAVWLLVSTLAVARAFLFLADARADKRNRERAKKVLGESISISQFFAADIDNDGRLSLAEFAIYKLKQMEKITQEDFIQICNQFDKLDRTQSGRITLVDLTTATSV
notes: AtKCO3, putative one-pore K+ channel subunit of Arabidopsis thaliana, locus AT5G46360; cDNA from seedlings of ecotype C24; calculated mass 29 kDa; The AtKCO3 cDNA without tag was put into pBinAR-Kan; also called wild-type protein; source: transgenic Arabidopsis (CaMV 35S promoter, p35S-KCO3), in leaf homogenate

This data set concerns the molecule itself. Description: velocity sucrose gradient centrifugation; leaf homogenate in 200 mM NaCl, 0.2% Triton X-100, 50 mM Tris-Cl pH 7.8; linear 5-25% sucrose gradient with 150 mM NaCl, 0.1% Triton X-100, 200,000 x g, 25 h, 4°C; fractions by SDS-PAGE and western blot; mass markers in a further gradient.
For B1, the stoichiometry N – broadly, a count of units in the complex or per binding partner – was determined as 4.

As to B2, the “stoichiometry N” value worked out at 2.

Consider B3, for which the “stoichiometry N” value turned out to be 2.
